# The nanobody polyreactivity screen of Harvey et al. (2022)
# Test: yeast display, Sf9 membrane polyspecificity reagent, FACS + sequencing; frameworks hold sequencing errors
# How it was run: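 A synthetic nanobody library was expressed on Saccharomyces cerevisiae BJ5465 by galactose induction for 36–48 hours. The library was stained for 1 hour at 4 °C with 10% biotinylated, detergent-solubilized Sf9 membrane reagent and enriched with streptavidin microbeads before FACS. Low and high (top ~1%) gates were set on anti-HA fluorescence for expression and streptavidin fluorescence for reagent binding, and each polyreactivity label reflects the gate of origin.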
row,Sequence,polyreactivity (PSR sort gate)
1,QVQLVESGGGLVQAGGSLRLSCAASGFTFGYYAMGWYRQAPGKERELVAAITWNGGSTYYADSVKGRFTISRDYAKNTVYLQMNSLKPEDTAVYYCAAVYKYIQRYDYWGQGTQVTVSS,high polyreactivity
2,QVQLVESGGGLVQAGGSLRLSCAASGSTFYQNAMGWYRQAPGKERELVAAISRSGGGTYYADSVKGRFTISRDNAKNTVYLQMNSLKPEDTAVYYCAVRPTYNSWTRSTSRYYYWGQGTQVTVSS,high polyreactivity
3,QVQLVESGGGLVQAGGSLRLSCAASGGIFPFYAMGWDRQAPGKERELVAVITSSGGSTFYSDSVKGRFTISRDNAKNTVYLQMNSLKPEDTAVYYGNARRVSREIWYGATGNDYWGQGTQGTVSS,low polyreactivity
4,QVQLVDSGGGLVQAGGSLSLSCAASGYTMGYYTMGWYIEAPGKERELVATISRRGGSTSYADSVKGRFTISRDNAKNTVYLQMNSLKPEDTAVYYCNAQTSGRVGSQYYSYDGSWGQCTQVTVSS,high polyreactivity
5,QVQLVESGGGLVQAGGSLRLSCAASGSTFRRYPMGGYRQAPGTERELVAGISSGGTTYYADSVKGRFTISRDNAKNSVYLQMNSLKPEDTAVYYCAKVLYLRSAQAYYYWGQGTQVTVSS,high polyreactivity
6,QVQLVESGGGLVQAGGSLRLSCAASGRIFPFYVMGWYRQAPGKERELVATINWSGGSTYYADSVKGRFTISRDNAKNTVYLQMNSLKPEDSAVYYCNAAPSEDYDYWGQGTQVTVSS,low polyreactivity
7,QVQLVESGGGLVQAGGSLRLSCAASGIIFKSYAMGWYRQAPGKERELVAAITKRGGSTYYADSVKGRFTISRDNAKNTVYLQMNSLKPEDTAVYYCAADDGVGNTDDYWGQGTQVTVSS,high polyreactivity
8,QVQLVESGGGLVQAGRTLRLSCAASGSNFSVYVMGWYRQAPGKEWELVAAISWSDSDTYYADSVKGRFTISRDNATNNVYLLMNSLNPEDTAVYYCAAETFDYHDYIANGSGEYDYWGQGNQVTVSS,high polyreactivity
9,QVQLVESGGGLVQAGGSLRLSCAASGSIFQFSAMGWYRQAPGKERPLVAAISDRGGSTYYADSVKGRFTISRDNAKNTVYLLMNSLKPEDTAVYYCAKGGEVSQGYTDEYDYWGQGTQVTVSS,low polyreactivity
10,QVQLVESGGGLVQAGGSLRLSCAASVGTFSPNTMGWYRQAPGKERELVAAISSSGSTSYADSVKGRFTISRDNAKNTVYLQMNSLKPEDTAGYFCNADDTISYYASGFDNYDYWGQGTQVTVSS,low polyreactivity
11,QVQLVESGGGLVQEGGSLRLSCAASGGTFRWYTMGWYRQAPGKERELVAAISSTGSTYYADSVKGRFTISRDNAKNTVYLQMNSLKPEDTAVYYCNASYNGKGSWDLDYWGQGTQVTVSS,high polyreactivity
12,QVQLVESGGGLVQAGGSLRLSCAASGNIFAYYAMGWYRQAPGKEREFVAAIRSSGVSTYYADSVKGRFTISRDNAKNTVYLQMNSLKPEDTAVYYCAADSITGGWLIVSPPFNYTYDYWGQGTQVTVSS,low polyreactivity
13,QVQLVESGGGLVQAGGSRRISCAASGIIFTLYVMGWYRQAPGTERELVAAIRSGGSTYYADSVKGRVTISRDNAKNTVYLQMNSLKPEDTAVYYCAARVRSGTGVGFDYWGQGTQVTVSS,high polyreactivity
14,QVQLVESGGGLVQAGGSLRLSCAASGITFNTYAMGWYRQAPGKERELVAVITWSDGGTYYADSVKGRFTISRDNAKNTVYLQMNSLKPEDTAVYYCAKVLGGLRHGEVLDEYDYWGQGTQVTVSS,low polyreactivity
15,QVQLVESGGGLVQAGGSLRLSCAASGFTFYGYAMGWYRQAPGKERELVAAISTRGSRTYYADSVKGRFTISRDNSKNTVYLQMNSLKPEDTAVYYCAARKKHSGYGRGNYWGQGTQVTVSS,high polyreactivity
16,QVQLVESGGGLVQAGGSLRLSCAASGRIFYYYAMGLYRQAPGKERELVAAISGSGGTTYNADSVKGRITISRDHAKNTVYLQMNSLKPEDTAVYYCAEVQYRYAREYYYWGQCTQVTVSS,high polyreactivity
17,QVQLVESGGGLVQAGGSLRLSCAASGYTFYSYAMGWYRQAPGKERELFAAITESGARTYYADSVKGRFTISRDNAKNTVYLQMNSLKPEVTAVYYCAADYAWPLRVTGDYWGQGTQVTVSS,low polyreactivity
18,QVQLVESGGGLFQAGGSHRLSCAASGSTFKQYAMGWYRQAPGKERELVAAIDRGGSTYYADSVKGRFTITRDNAKITVYLQMTSLKPEDTAVYYCAARFVQYRYAYDYWGQGTQVTVSS,low polyreactivity
19,QVQLVESGGGLVQAGGSLRLSCAASGSTFSANPMGWYRQAPGKERELVASISRRGGSTYYADSVKGRFTISRDNAKNTVYLQMNNLKPEDTAVYYCAAYYEYRRDYWGQGTQVTVSS,high polyreactivity
20,QVQLVESGGGLVQAGGSLRLSCAASGSIFLYNALGWYRQAPGKERELVAAIYKSGGSTYYADSVKGRFTISRDNEKNSVYLQMNSLKPEDTAVYYCAAGYGSRIRYGSEYDYWGQGTQVTVSS,low polyreactivity

row,Sequence,polyreactivity (PSR sort gate)
1,QVQLVESGGGLVQAGGSLRLSCAASGYIFPYNAMGWYRQAPGKERELVATITWTGGSKYYADSVKGRFTISRDNAKNTVYLQMNSLKPEDTAVYDCADDLSIRYDHEYGYWGQGTQVTVSS,low polyreactivity
2,QVQLVESGGGLVQAGGSLRLICAASGSIFYYNVMGWYRQAPGKEREWVAAIDIDGSTYYADSVNGRFTIARDNAKNTVYLQMNSLKPADTAVYYCNAQAPYWFSFYSDHKYDYWGLGTQVTVSS,low polyreactivity
3,QVQLVESGGGLDQAGGSLRLSCAASGRTFWAPYTMGWYRQAPWKERELVAAISKSTTRTYYADSVKGRFTISRDNAKNTVYLQMTSLKPEDTAVYYCAVDSLYASRWVDYWGQGTQVTVSS,high polyreactivity
4,QVQLVESGGGLVQAGGSLRLSSAATGSIFRGNAIGWYRQAPWKELELVASISYSRGSTYYADSVKGRFTISRDNEKNTVYLQMNSVKPEETAVYYCARDYDAAYYLSEYIRSVEFDYWGQGTQVTVSS,low polyreactivity
5,HVQLQERAAWCRRAGSLRQSCAASGNISHYYFMGWYRQAPGKERELVAAIAPGSNTYYADSVKGRFTISRDNAKNTVYLQMNSLKPEDTAVCFCAANSTQYTWFDYWGQGTQVPVSS,low polyreactivity
6,QVQLVESGGGLVQAGGSLRLSCAASGSIFQPYAMGWYRQAPGKERELVAAINGRGGSTHYADSVKGRFTISRDNAKNTVYLQMNSLKPEDTAVYYCAATWAYPGSGYVYFYGNDYWGQGTQVTVSS,high polyreactivity
7,QVQLVESGGGLVQAGGSLRLSCAASGLIFGWYAMGWYRQAPGKERELVAGISGSGGITYYADSVKGRFTISRDNAKNTVYLQMNSLKPEDTAVYYCAARPGYVHIDFDYWGQGTQVTVSS,low polyreactivity
8,QVQLVESGGGLVQAGGSLRLICAASGFTFRRYAMGWYRQAPGKEREFVAVITWSGTRTYYADSVKGRFTISRDNAKNTVYLQMNSLKPEDTAVYYCAAYITDVAGRAYDYWGQGTQVTVSS,high polyreactivity
9,QVQLVESGGGLVQAGGSLRLSCAASGRTFGYTMGWYRQAPGKERELVAAITRSVTTYYADSVKGRFTISRDNAKNTVYLQMNSLKPEDTAVYYCAAVNTLREMYWGQGTQVTVSS,high polyreactivity
10,QVQLVESGGGLVQAGGSLRLSCAASGFTFHYNAMGWYRQAPGKERELVAAISRSGGITNYADSVKGRFTISRDNAKNTVYLQMNSLKPEDTAVYYCAAYLVVRIRYTQRYDYWGQGTQVTVSS,low polyreactivity
11,QVQLVESGGGLVQAGGSLRLSCAASGRIFKGYAMGWYRQAPGKESELVAAITWRGGTTYYADSVKGRFTISRDNAKNTVYLQMNSLKPEDTAVYYCARARPTGYNYWGQGTQVTVSS,high polyreactivity
12,QVQLVESGGGIVQAGGSLRLSCAASGSIFKYYAMARYRQAPGKERELVASMSRVGSTNYADSVKGRFTISRDTAKNTVYLQMNSLKPEDTAVYYCNKRWLYYNLDYWGQGTQVTVSS,high polyreactivity
13,QVQLVESGGGLVQAGGSLRLSCAASGFTYYIYAMGWYRQAPGKERELVAAISRSAGITNYADSVKGRFTISRDNAKNTVYLQMNSLKAEDTAVYYCAAEVGYWGYQISGDYWGQGTQVTVSS,low polyreactivity
14,PVQLVESGGGLVQAGGSLRLSCAASGFTFDENAMGWYRQAPGITYSGASTYYADSVKGPYTISRANAQNTVYLQMNSLKPEDTAVYYCAAEVVAQMNYWGQGTQVTVSS,low polyreactivity
15,QVHLEESGGGIVQAGGSLRLSCAASGFTFPVHAMGWYRQAPGKERQLVAAIRWIGGDTYYADSVKGRFTISRDNAKNTVYLQMNSLKPEDTAVYYCAAEDTDDYSIWFEYWGQGTQVTVSS,high polyreactivity
16,QVQLVESGGGLVQAGGSLRLSCAASGITFVINGMGWYRQAPGKESELLAAISKSGRTYYADSVKGRFTISRDNAKNTVFIQMNSLTPEDSAVYYCNNVPYPSNDYWGQGTQVTVSS,high polyreactivity
17,QVQLVESGGGLVQAGGSLRFSCAASGSIFITYAMGWSRQAPGKERELVAAIRDSGDRTYYADSVKGRFTISRDNAKNTVYLQMNSLKPEDTAVYYCNARWQEPLKYDYWGQGTQVTVSS,low polyreactivity
18,QVQLVESGGGLVQAGGSLRLSCAASGSTFVSNVMGWYRQAPGKERELVAAITSGGSTYYADSVKGRFTISRDNAKNTVYLQMNSLKPEDTAVYYCAAGGRWARWLFPSRYDYWGQGTQVTVSS,low polyreactivity
19,QVQLVESGGGLVQAGGSLRLSCAASGSIFNWYALGWYRQAPGKDRELVAAISKSGGRPYYADSVKGRFTISRDNAKNTVYLQKNSLKPEDTAVFSCNAPRFVGLNVYGYDYWGQGTQVTVSS,high polyreactivity
20,QVQLVESGGGLVQAGGSLRLSCAASGSIFQYTMGWYRQAPGKERELVAAITRSGSSTYYADSVKGRFTISRDNAKNTVYLQMNSLKPEDTAVYSCAHTIRRVLGYGSWGQGTQVTVSS,high polyreactivity
